Test results taken from PMC8699718, “A structurally conserved site in AUP1 binds the E2 enzyme UBE2G2 and is essential for ER-associated degradation” (PLoS Biology, 2021).
Ends that are not written are not given here.

Tested on: RI332 (truncated Ribophorin I)
Assay: CHX chase: RI332 degradation in HT1080 AUP1 KO cells
Type: cell-based, human
Details: GFP-G2BR^AUP1 co-expressed with TM-UBE2G2, HT1080 AUP1 KO
Text: Fig 2 The G2BR of AUP1 is required for ERAD of mutant ribophorin and GFP^u. (A) HT1080 or HRD1 KO cells were transfected with plasmid encoding RI332-MYC and with plasmid encoding HRD1 as indicated. Cells were subject to CHX chase and RI332-MYC degradation monitored by western blot. GFP serves as a transfection efficiency control. (B) HT1080 or AUP1 KO cells were transfected with plasmid encoding RI332-MYC and AUP1-FLAG WT or deletion mutants assessed for RI332 degradation. Lower band (*) in MYC blot is nonspecific. (C, D) HEK293 or AUP1 KO cells were assessed for RI332 turnover as in (B). (E) HT1080 or AUP1 KO cells were transfected with GFP^u plasmid, and its degradation assessed by emetine chase, which has previously been used to assess GFP^u turnover. […] (F) HT1080 AUP1 KO cells were transfected with GFP^u and the indicated AUP1-FLAG WT or deletion mutants, and GFP^u degradation assessed as in (E). […]
Fig 8 Recruitment of UBE2G2 to the ER membrane and activation by G2BR^AUP1 is required for ERAD. (A) HT1080 or AUP1 KO cells were transfected with NHK-HA and either empty vector or MYC-UBE2G2 and NHK turnover assessed by CHX chase. (B) AUP1 KO cells were transfected with NHK-HA and GFP fusions of either a scrambled G2BR sequence (SCR) or G2BR^AUP1 and NHK turnover and levels of endogenous UBE2G2 assessed. […] (G) U-2 OS cells were transfected as in (F), and localization assessed by SIM. […]

With “GFP-G2BR^AUP1: GFP fusion of AUP1 aa 378 to 404 (SSWARQESLQERKQALYEYARRRFTER; also: GFP fusion; UniProt Q9Y679 378-404, looked up, fragment)” the “RI332 degradation, soluble G2BR with TM-UBE2G2” value was “restored degradation of RI332”.
